Measured values reported in patent publication US20260167699A1 (Chugai, published 2026).

Target: T1, FcγRIIIa extracellular domain, C-terminal His tag (human, UniProt P08637 17-208)
T1 construct: extracellular domain; also called 3a
Test: SPR, binding activity relative to GpH7-A5/GpH7-B3/GpL16-k0 (=100)

T1 sequence (P08637 other isoform, or with tags, fused parts or gaps): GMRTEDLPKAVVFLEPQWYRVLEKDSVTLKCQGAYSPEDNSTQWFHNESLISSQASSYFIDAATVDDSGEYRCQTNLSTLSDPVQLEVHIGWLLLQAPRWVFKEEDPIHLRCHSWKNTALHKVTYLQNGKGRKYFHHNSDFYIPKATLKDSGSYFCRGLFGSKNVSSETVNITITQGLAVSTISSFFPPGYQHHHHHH

Row | Binder | He/Con 3a [%]
1 | GpH7-A5/GpH7-B3 variant A330_07I/GpL16-k0 (antibody, human IgG1, kappa, He Ab; copies: 1 + 1 + 2) heavy 1: not shown heavy 2: not shown light: DIVMTQSPLSLPVTPGEPASISCQASESLVHSNRNTYLHWYLQKPGQSPQLLIYKVSNRFSGVPDRFSGSGSGTDFTLKISRVEAEDVGVYYCSQNTHVPPTFGQGTKVEIERTVAAPSVFIFPPSDEQLKSGTASVVCLLNNFYPREAKVQWKVDNALQSGNSQESVTEQDSKDSTYSLSSTLTLSKADYEKHKVYACEVTHQGLSSPVTKSFNRGEC | 101
2 | GpH7-A5/GpH7-B3 variant A330_08L/GpL16-k0 (antibody, human IgG1, kappa, He Ab; copies: 1 + 1 + 2) heavy 1: not shown heavy 2: not shown light: DIVMTQSPLSLPVTPGEPASISCQASESLVHSNRNTYLHWYLQKPGQSPQLLIYKVSNRFSGVPDRFSGSGSGTDFTLKISRVEAEDVGVYYCSQNTHVPPTFGQGTKVEIERTVAAPSVFIFPPSDEQLKSGTASVVCLLNNFYPREAKVQWKVDNALQSGNSQESVTEQDSKDSTYSLSSTLTLSKADYEKHKVYACEVTHQGLSSPVTKSFNRGEC | 122
3 | GpH7-A5/GpH7-B3 variant A330_09D/GpL16-k0 (antibody, human IgG1, kappa, He Ab; copies: 1 + 1 + 2) heavy 1: not shown heavy 2: not shown light: DIVMTQSPLSLPVTPGEPASISCQASESLVHSNRNTYLHWYLQKPGQSPQLLIYKVSNRFSGVPDRFSGSGSGTDFTLKISRVEAEDVGVYYCSQNTHVPPTFGQGTKVEIERTVAAPSVFIFPPSDEQLKSGTASVVCLLNNFYPREAKVQWKVDNALQSGNSQESVTEQDSKDSTYSLSSTLTLSKADYEKHKVYACEVTHQGLSSPVTKSFNRGEC | 56.4
4 | GpH7-A5/GpH7-B3 variant A330_10E/GpL16-k0 (antibody, human IgG1, kappa, He Ab; copies: 1 + 1 + 2) heavy 1: not shown heavy 2: not shown light: DIVMTQSPLSLPVTPGEPASISCQASESLVHSNRNTYLHWYLQKPGQSPQLLIYKVSNRFSGVPDRFSGSGSGTDFTLKISRVEAEDVGVYYCSQNTHVPPTFGQGTKVEIERTVAAPSVFIFPPSDEQLKSGTASVVCLLNNFYPREAKVQWKVDNALQSGNSQESVTEQDSKDSTYSLSSTLTLSKADYEKHKVYACEVTHQGLSSPVTKSFNRGEC | 82.8
5 | GpH7-A5/GpH7-B3 variant A330_11K/GpL16-k0 (antibody, human IgG1, kappa, He Ab; copies: 1 + 1 + 2) heavy 1: not shown heavy 2: not shown light: DIVMTQSPLSLPVTPGEPASISCQASESLVHSNRNTYLHWYLQKPGQSPQLLIYKVSNRFSGVPDRFSGSGSGTDFTLKISRVEAEDVGVYYCSQNTHVPPTFGQGTKVEIERTVAAPSVFIFPPSDEQLKSGTASVVCLLNNFYPREAKVQWKVDNALQSGNSQESVTEQDSKDSTYSLSSTLTLSKADYEKHKVYACEVTHQGLSSPVTKSFNRGEC | 91.8
6 | GpH7-A5/GpH7-B3 variant A330_12R/GpL16-k0 (antibody, human IgG1, kappa, He Ab; copies: 1 + 1 + 2) heavy 1: not shown heavy 2: not shown light: DIVMTQSPLSLPVTPGEPASISCQASESLVHSNRNTYLHWYLQKPGQSPQLLIYKVSNRFSGVPDRFSGSGSGTDFTLKISRVEAEDVGVYYCSQNTHVPPTFGQGTKVEIERTVAAPSVFIFPPSDEQLKSGTASVVCLLNNFYPREAKVQWKVDNALQSGNSQESVTEQDSKDSTYSLSSTLTLSKADYEKHKVYACEVTHQGLSSPVTKSFNRGEC | 77.3
7 | GpH7-A5/GpH7-B3 variant A330_14T/GpL16-k0 (antibody, human IgG1, kappa, He Ab; copies: 1 + 1 + 2) heavy 1: not shown heavy 2: not shown light: DIVMTQSPLSLPVTPGEPASISCQASESLVHSNRNTYLHWYLQKPGQSPQLLIYKVSNRFSGVPDRFSGSGSGTDFTLKISRVEAEDVGVYYCSQNTHVPPTFGQGTKVEIERTVAAPSVFIFPPSDEQLKSGTASVVCLLNNFYPREAKVQWKVDNALQSGNSQESVTEQDSKDSTYSLSSTLTLSKADYEKHKVYACEVTHQGLSSPVTKSFNRGEC | 85.8
8 | GpH7-A5/GpH7-B3 variant A330_15Y/GpL16-k0 (antibody, human IgG1, kappa, He Ab; copies: 1 + 1 + 2) heavy 1: not shown heavy 2: not shown light: DIVMTQSPLSLPVTPGEPASISCQASESLVHSNRNTYLHWYLQKPGQSPQLLIYKVSNRFSGVPDRFSGSGSGTDFTLKISRVEAEDVGVYYCSQNTHVPPTFGQGTKVEIERTVAAPSVFIFPPSDEQLKSGTASVVCLLNNFYPREAKVQWKVDNALQSGNSQESVTEQDSKDSTYSLSSTLTLSKADYEKHKVYACEVTHQGLSSPVTKSFNRGEC | 122
9 | GpH7-A5/GpH7-B3 variant A330_16H/GpL16-k0 (antibody, human IgG1, kappa, He Ab; copies: 1 + 1 + 2) heavy 1: not shown heavy 2: not shown light: DIVMTQSPLSLPVTPGEPASISCQASESLVHSNRNTYLHWYLQKPGQSPQLLIYKVSNRFSGVPDRFSGSGSGTDFTLKISRVEAEDVGVYYCSQNTHVPPTFGQGTKVEIERTVAAPSVFIFPPSDEQLKSGTASVVCLLNNFYPREAKVQWKVDNALQSGNSQESVTEQDSKDSTYSLSSTLTLSKADYEKHKVYACEVTHQGLSSPVTKSFNRGEC | 102
10 | GpH7-A5/GpH7-B3 variant A330_18N/GpL16-k0 (antibody, human IgG1, kappa, He Ab; copies: 1 + 1 + 2) heavy 1: not shown heavy 2: not shown light: DIVMTQSPLSLPVTPGEPASISCQASESLVHSNRNTYLHWYLQKPGQSPQLLIYKVSNRFSGVPDRFSGSGSGTDFTLKISRVEAEDVGVYYCSQNTHVPPTFGQGTKVEIERTVAAPSVFIFPPSDEQLKSGTASVVCLLNNFYPREAKVQWKVDNALQSGNSQESVTEQDSKDSTYSLSSTLTLSKADYEKHKVYACEVTHQGLSSPVTKSFNRGEC | 67.3
11 | GpH7-A5/GpH7-B3 variant A330_19Q/GpL16-k0 (antibody, human IgG1, kappa, He Ab; copies: 1 + 1 + 2) heavy 1: not shown heavy 2: not shown light: DIVMTQSPLSLPVTPGEPASISCQASESLVHSNRNTYLHWYLQKPGQSPQLLIYKVSNRFSGVPDRFSGSGSGTDFTLKISRVEAEDVGVYYCSQNTHVPPTFGQGTKVEIERTVAAPSVFIFPPSDEQLKSGTASVVCLLNNFYPREAKVQWKVDNALQSGNSQESVTEQDSKDSTYSLSSTLTLSKADYEKHKVYACEVTHQGLSSPVTKSFNRGEC | 86.3
12 | GpH7-A5/GpH7-B3 variant A330_20W/GpL16-k0 (antibody, human IgG1, kappa, He Ab; copies: 1 + 1 + 2) heavy 1: not shown heavy 2: not shown light: DIVMTQSPLSLPVTPGEPASISCQASESLVHSNRNTYLHWYLQKPGQSPQLLIYKVSNRFSGVPDRFSGSGSGTDFTLKISRVEAEDVGVYYCSQNTHVPPTFGQGTKVEIERTVAAPSVFIFPPSDEQLKSGTASVVCLLNNFYPREAKVQWKVDNALQSGNSQESVTEQDSKDSTYSLSSTLTLSKADYEKHKVYACEVTHQGLSSPVTKSFNRGEC | 102
13 | GpH7-A5/GpH7-B3 variant D270_02A/GpL16-k0 (antibody, human IgG1, kappa, He Ab; copies: 1 + 1 + 2) heavy 1: not shown heavy 2: not shown light: DIVMTQSPLSLPVTPGEPASISCQASESLVHSNRNTYLHWYLQKPGQSPQLLIYKVSNRFSGVPDRFSGSGSGTDFTLKISRVEAEDVGVYYCSQNTHVPPTFGQGTKVEIERTVAAPSVFIFPPSDEQLKSGTASVVCLLNNFYPREAKVQWKVDNALQSGNSQESVTEQDSKDSTYSLSSTLTLSKADYEKHKVYACEVTHQGLSSPVTKSFNRGEC | 50.5
14 | GpH7-A5/GpH7-B3 variant D270_03V/GpL16-k0 (antibody, human IgG1, kappa, He Ab; copies: 1 + 1 + 2) heavy 1: not shown heavy 2: not shown light: DIVMTQSPLSLPVTPGEPASISCQASESLVHSNRNTYLHWYLQKPGQSPQLLIYKVSNRFSGVPDRFSGSGSGTDFTLKISRVEAEDVGVYYCSQNTHVPPTFGQGTKVEIERTVAAPSVFIFPPSDEQLKSGTASVVCLLNNFYPREAKVQWKVDNALQSGNSQESVTEQDSKDSTYSLSSTLTLSKADYEKHKVYACEVTHQGLSSPVTKSFNRGEC | 54.6
15 | GpH7-A5/GpH7-B3 variant D270_06M/GpL16-k0 (antibody, human IgG1, kappa, He Ab; copies: 1 + 1 + 2) heavy 1: not shown heavy 2: not shown light: DIVMTQSPLSLPVTPGEPASISCQASESLVHSNRNTYLHWYLQKPGQSPQLLIYKVSNRFSGVPDRFSGSGSGTDFTLKISRVEAEDVGVYYCSQNTHVPPTFGQGTKVEIERTVAAPSVFIFPPSDEQLKSGTASVVCLLNNFYPREAKVQWKVDNALQSGNSQESVTEQDSKDSTYSLSSTLTLSKADYEKHKVYACEVTHQGLSSPVTKSFNRGEC | 60
16 | GpH7-A5/GpH7-B3 variant D270_07I/GpL16-k0 (antibody, human IgG1, kappa, He Ab; copies: 1 + 1 + 2) heavy 1: not shown heavy 2: not shown light: DIVMTQSPLSLPVTPGEPASISCQASESLVHSNRNTYLHWYLQKPGQSPQLLIYKVSNRFSGVPDRFSGSGSGTDFTLKISRVEAEDVGVYYCSQNTHVPPTFGQGTKVEIERTVAAPSVFIFPPSDEQLKSGTASVVCLLNNFYPREAKVQWKVDNALQSGNSQESVTEQDSKDSTYSLSSTLTLSKADYEKHKVYACEVTHQGLSSPVTKSFNRGEC | 63.1
17 | GpH7-A5/GpH7-B3 variant D270_08L/GpL16-k0 (antibody, human IgG1, kappa, He Ab; copies: 1 + 1 + 2) heavy 1: not shown heavy 2: not shown light: DIVMTQSPLSLPVTPGEPASISCQASESLVHSNRNTYLHWYLQKPGQSPQLLIYKVSNRFSGVPDRFSGSGSGTDFTLKISRVEAEDVGVYYCSQNTHVPPTFGQGTKVEIERTVAAPSVFIFPPSDEQLKSGTASVVCLLNNFYPREAKVQWKVDNALQSGNSQESVTEQDSKDSTYSLSSTLTLSKADYEKHKVYACEVTHQGLSSPVTKSFNRGEC | 65.1
18 | GpH7-A5/GpH7-B3 variant D270_10E/GpL16-k0 (antibody, human IgG1, kappa, He Ab; copies: 1 + 1 + 2) heavy 1: not shown heavy 2: not shown light: DIVMTQSPLSLPVTPGEPASISCQASESLVHSNRNTYLHWYLQKPGQSPQLLIYKVSNRFSGVPDRFSGSGSGTDFTLKISRVEAEDVGVYYCSQNTHVPPTFGQGTKVEIERTVAAPSVFIFPPSDEQLKSGTASVVCLLNNFYPREAKVQWKVDNALQSGNSQESVTEQDSKDSTYSLSSTLTLSKADYEKHKVYACEVTHQGLSSPVTKSFNRGEC | 112
19 | GpH7-A5/GpH7-B3 variant D270_13S/GpL16-k0 (antibody, human IgG1, kappa, He Ab; copies: 1 + 1 + 2) heavy 1: not shown heavy 2: not shown light: DIVMTQSPLSLPVTPGEPASISCQASESLVHSNRNTYLHWYLQKPGQSPQLLIYKVSNRFSGVPDRFSGSGSGTDFTLKISRVEAEDVGVYYCSQNTHVPPTFGQGTKVEIERTVAAPSVFIFPPSDEQLKSGTASVVCLLNNFYPREAKVQWKVDNALQSGNSQESVTEQDSKDSTYSLSSTLTLSKADYEKHKVYACEVTHQGLSSPVTKSFNRGEC | 51.4
20 | GpH7-A5/GpH7-B3 variant D270_14T/GpL16-k0 (antibody, human IgG1, kappa, He Ab; copies: 1 + 1 + 2) heavy 1: not shown heavy 2: not shown light: DIVMTQSPLSLPVTPGEPASISCQASESLVHSNRNTYLHWYLQKPGQSPQLLIYKVSNRFSGVPDRFSGSGSGTDFTLKISRVEAEDVGVYYCSQNTHVPPTFGQGTKVEIERTVAAPSVFIFPPSDEQLKSGTASVVCLLNNFYPREAKVQWKVDNALQSGNSQESVTEQDSKDSTYSLSSTLTLSKADYEKHKVYACEVTHQGLSSPVTKSFNRGEC | 55.4
21 | GpH7-A5/GpH7-B3 variant D270_18N/GpL16-k0 (antibody, human IgG1, kappa, He Ab; copies: 1 + 1 + 2) heavy 1: not shown heavy 2: not shown light: DIVMTQSPLSLPVTPGEPASISCQASESLVHSNRNTYLHWYLQKPGQSPQLLIYKVSNRFSGVPDRFSGSGSGTDFTLKISRVEAEDVGVYYCSQNTHVPPTFGQGTKVEIERTVAAPSVFIFPPSDEQLKSGTASVVCLLNNFYPREAKVQWKVDNALQSGNSQESVTEQDSKDSTYSLSSTLTLSKADYEKHKVYACEVTHQGLSSPVTKSFNRGEC | 51.2
22 | GpH7-A5/GpH7-B3 variant D270_19Q/GpL16-k0 (antibody, human IgG1, kappa, He Ab; copies: 1 + 1 + 2) heavy 1: not shown heavy 2: not shown light: DIVMTQSPLSLPVTPGEPASISCQASESLVHSNRNTYLHWYLQKPGQSPQLLIYKVSNRFSGVPDRFSGSGSGTDFTLKISRVEAEDVGVYYCSQNTHVPPTFGQGTKVEIERTVAAPSVFIFPPSDEQLKSGTASVVCLLNNFYPREAKVQWKVDNALQSGNSQESVTEQDSKDSTYSLSSTLTLSKADYEKHKVYACEVTHQGLSSPVTKSFNRGEC | 74.2
